Measured values published in article PMC9482650, “Quantitative fragmentomics allow affinity mapping of interactomes” (Nature Communications, 2022).

T1: TJP3_3, O95049
T1 sequence (O95049 375-456, limits assumed, looked up): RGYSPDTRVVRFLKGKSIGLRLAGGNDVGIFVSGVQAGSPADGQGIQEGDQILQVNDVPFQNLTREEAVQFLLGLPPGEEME

T2: HTRA4, P83105
T2 sequence (P83105 378-476, limits assumed, looked up): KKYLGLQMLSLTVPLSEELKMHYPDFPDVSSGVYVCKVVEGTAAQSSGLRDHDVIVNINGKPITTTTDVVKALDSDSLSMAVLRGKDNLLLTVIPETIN

T3: GRIP1_4, Q9Y3R0
T3 sequence (Q9Y3R0 467-571, limits assumed, looked up): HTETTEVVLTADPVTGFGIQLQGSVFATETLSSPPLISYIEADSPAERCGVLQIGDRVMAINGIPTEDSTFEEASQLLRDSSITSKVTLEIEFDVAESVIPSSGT

T4: GRIP1_5, Q9Y3R0
T4 sequence (Q9Y3R0 568-668, limits assumed, looked up): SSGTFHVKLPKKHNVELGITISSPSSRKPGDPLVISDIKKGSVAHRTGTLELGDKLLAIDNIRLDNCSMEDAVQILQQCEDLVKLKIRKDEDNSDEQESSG

T5: APBA1_1, Q02410
T5 sequence (Q02410 651-752, limits assumed, looked up): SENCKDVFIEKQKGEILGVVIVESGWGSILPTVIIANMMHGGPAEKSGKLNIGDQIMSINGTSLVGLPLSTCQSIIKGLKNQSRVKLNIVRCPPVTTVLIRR

T6: APBA1_2, Q02410
T6 sequence (Q02410 742-832, limits assumed, looked up): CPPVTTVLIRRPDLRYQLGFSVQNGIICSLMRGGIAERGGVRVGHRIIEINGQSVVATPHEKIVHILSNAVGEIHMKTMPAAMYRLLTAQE

T7: FRMPD1, Q5SYB0
T7 sequence (Q5SYB0 52-145, limits assumed, looked up): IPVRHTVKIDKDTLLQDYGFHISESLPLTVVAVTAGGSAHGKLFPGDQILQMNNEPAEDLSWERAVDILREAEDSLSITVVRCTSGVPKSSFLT

T8: DFNB31_2, Q9P202
T8 sequence (Q9P202 274-371, limits assumed, looked up): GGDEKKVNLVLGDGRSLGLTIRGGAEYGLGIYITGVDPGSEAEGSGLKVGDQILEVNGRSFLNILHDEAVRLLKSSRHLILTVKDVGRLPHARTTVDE

T9: PDZRN3_1, Q9UPQ7
T9 sequence (Q9UPQ7 244-349, limits assumed, looked up): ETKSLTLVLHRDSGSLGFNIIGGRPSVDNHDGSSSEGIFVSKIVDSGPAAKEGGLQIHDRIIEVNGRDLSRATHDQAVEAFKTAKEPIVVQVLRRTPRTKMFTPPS

T10: TIAM2, Q8IVF5
T10 sequence (Q8IVF5 885-986, limits assumed, looked up): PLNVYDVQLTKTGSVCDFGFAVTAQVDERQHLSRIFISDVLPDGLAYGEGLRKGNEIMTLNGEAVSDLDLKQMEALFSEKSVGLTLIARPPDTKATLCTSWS

T11: MPDZ_10, O75970
T11 sequence (O75970 1624-1722, limits assumed, looked up): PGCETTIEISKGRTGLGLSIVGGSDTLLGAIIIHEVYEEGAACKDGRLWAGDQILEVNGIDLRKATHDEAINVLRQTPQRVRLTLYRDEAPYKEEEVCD

T12: HTRA3, P83110
T12 sequence (P83110 354-453, limits assumed, looked up): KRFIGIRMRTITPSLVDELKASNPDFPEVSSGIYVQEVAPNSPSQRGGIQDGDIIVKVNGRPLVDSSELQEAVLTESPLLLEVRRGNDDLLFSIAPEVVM

B1: ATP2B4, P23634 (peptide)
chain: SSLQSLETSV
B2: HPV30-E6, P36809 (peptide)
chain: RHTTSTETAV

Biological target: NOS1, P29475
Sequence (P29475 9-101): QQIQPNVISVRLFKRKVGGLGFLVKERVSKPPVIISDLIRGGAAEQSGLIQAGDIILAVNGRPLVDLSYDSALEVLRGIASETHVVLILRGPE
Assay: holdup assay
Set-up: key: below the threshold = too weak to quantify, mostly under pKd 3.1 to 4
Conditions: plain residues with an end cap or a label only (N-terminal biotin on a linker: ttds)

Binder	pKd
B1	4.04
B2	4.63

Biological target: TJP2_1, Q9UDY2
Sequence (Q9UDY2 24-128): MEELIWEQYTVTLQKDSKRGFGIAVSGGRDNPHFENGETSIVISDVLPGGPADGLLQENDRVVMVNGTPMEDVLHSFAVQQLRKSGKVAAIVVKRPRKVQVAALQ
Assay: holdup assay
Set-up: key: below the threshold = too weak to quantify, mostly under pKd 3.1 to 4
Conditions: plain residues with an end cap or a label only (N-terminal biotin on a linker: ttds)

Binder	pKd
B1	3.62
B2	below the threshold

Biological target: GIPC2, Q8TF65
Sequence (Q8TF65 112-203): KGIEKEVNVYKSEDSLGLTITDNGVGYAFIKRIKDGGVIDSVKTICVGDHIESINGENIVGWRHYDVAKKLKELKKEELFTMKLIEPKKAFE
Assay: holdup assay
Set-up: key: below the threshold = too weak to quantify, mostly under pKd 3.1 to 4
Conditions: plain residues with an end cap or a label only (N-terminal biotin on a linker: ttds)

Binder	pKd
B1	4.16
B2	3.96

Biological target: Inadl_4, Q8NI35
Sequence (Q8NI35 547-651): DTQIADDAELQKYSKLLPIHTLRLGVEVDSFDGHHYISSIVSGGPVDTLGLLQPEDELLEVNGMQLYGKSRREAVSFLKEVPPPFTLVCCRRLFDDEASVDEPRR
Assay: holdup assay
Set-up: key: below the threshold = too weak to quantify, mostly under pKd 3.1 to 4
Conditions: plain residues with an end cap or a label only (N-terminal biotin on a linker: ttds)

Binder	pKd
B1	below the threshold
B2	below the threshold

Biological target: T1, TJP3_3, O95049
Assay: holdup assay
Set-up: key: below the threshold = too weak to quantify, mostly under pKd 3.1 to 4
Conditions: plain residues with an end cap or a label only (N-terminal biotin on a linker: ttds)

Binder	pKd
B1	3.71
B2	below the threshold

Biological target: DLG4_3, P78352
Sequence (P78352 306-403): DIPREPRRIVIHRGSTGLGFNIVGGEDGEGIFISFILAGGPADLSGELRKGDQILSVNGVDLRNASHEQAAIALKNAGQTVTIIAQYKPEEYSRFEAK
Assay: holdup assay
Set-up: key: below the threshold = too weak to quantify, mostly under pKd 3.1 to 4
Conditions: plain residues with an end cap or a label only (N-terminal biotin on a linker: ttds)

Binder	pKd
B1	4.65
B2	4.35

Biological target: Inadl_3, Q8NI35
Sequence (Q8NI35 359-469): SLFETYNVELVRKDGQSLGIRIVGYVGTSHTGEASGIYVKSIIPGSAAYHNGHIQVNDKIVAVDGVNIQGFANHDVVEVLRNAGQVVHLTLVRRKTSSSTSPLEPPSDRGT
Assay: holdup assay
Set-up: key: below the threshold = too weak to quantify, mostly under pKd 3.1 to 4
Conditions: plain residues with an end cap or a label only (N-terminal biotin on a linker: ttds)

Binder	pKd
B1	3.56
B2	3.77

Biological target: SCRIB_3, Q14160
Sequence (Q14160 999-1103): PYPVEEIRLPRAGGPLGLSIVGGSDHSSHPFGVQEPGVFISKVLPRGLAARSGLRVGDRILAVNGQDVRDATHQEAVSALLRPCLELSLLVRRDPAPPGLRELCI
Assay: holdup assay
Set-up: key: below the threshold = too weak to quantify, mostly under pKd 3.1 to 4
Conditions: plain residues with an end cap or a label only (N-terminal biotin on a linker: ttds)

Binder	pKd
B1	5.11
B2	5.02

Biological target: Inadl_1, Q8NI35
Sequence (Q8NI35 113-229): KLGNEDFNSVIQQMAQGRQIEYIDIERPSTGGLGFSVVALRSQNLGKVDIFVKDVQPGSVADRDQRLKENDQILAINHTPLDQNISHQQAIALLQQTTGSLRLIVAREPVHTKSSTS
Assay: holdup assay
Set-up: key: below the threshold = too weak to quantify, mostly under pKd 3.1 to 4
Conditions: plain residues with an end cap or a label only (N-terminal biotin on a linker: ttds)

Binder	pKd
B1	below the threshold
B2	below the threshold

Biological target: HTRA1, Q92743
Sequence (Q92743 360-477): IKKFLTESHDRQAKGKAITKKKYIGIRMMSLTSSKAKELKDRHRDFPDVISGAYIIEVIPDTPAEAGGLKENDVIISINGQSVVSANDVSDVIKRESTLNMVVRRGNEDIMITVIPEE
Assay: holdup assay
Set-up: key: below the threshold = too weak to quantify, mostly under pKd 3.1 to 4
Conditions: plain residues with an end cap or a label only (N-terminal biotin on a linker: ttds)

Binder	pKd
B1	3.9
B2	3.73

Biological target: T2, HTRA4, P83105
Assay: holdup assay
Set-up: key: below the threshold = too weak to quantify, mostly under pKd 3.1 to 4
Conditions: plain residues with an end cap or a label only (N-terminal biotin on a linker: ttds)

Binder	pKd
B1	3.6
B2	below the threshold

Biological target: GOPC, Q9HD26
Assay: holdup assay
Set-up: key: below the threshold = too weak to quantify, mostly under pKd 3.1 to 4
Conditions: plain residues with an end cap or a label only (N-terminal biotin on a linker: ttds)

Binder	pKd
B1	below the threshold
B2	4.14

Biological target: T3, GRIP1_4, Q9Y3R0
Assay: holdup assay
Set-up: key: below the threshold = too weak to quantify, mostly under pKd 3.1 to 4
Conditions: plain residues with an end cap or a label only (N-terminal biotin on a linker: ttds)

Binder	pKd
B1	below the threshold
B2	below the threshold

Biological target: T4, GRIP1_5, Q9Y3R0
Assay: holdup assay
Set-up: key: below the threshold = too weak to quantify, mostly under pKd 3.1 to 4
Conditions: plain residues with an end cap or a label only (N-terminal biotin on a linker: ttds)

Binder	pKd
B1	below the threshold
B2	below the threshold

Biological target: SCRIB_2, Q14160
Sequence (Q14160 857-960): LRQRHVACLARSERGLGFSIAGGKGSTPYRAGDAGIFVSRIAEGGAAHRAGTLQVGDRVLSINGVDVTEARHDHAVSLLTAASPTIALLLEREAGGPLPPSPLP
Assay: holdup assay
Set-up: key: below the threshold = too weak to quantify, mostly under pKd 3.1 to 4
Conditions: plain residues with an end cap or a label only (N-terminal biotin on a linker: ttds)

Binder	pKd
B1	4.9
B2	5.11

Biological target: T5, APBA1_1, Q02410
Assay: holdup assay
Set-up: key: below the threshold = too weak to quantify, mostly under pKd 3.1 to 4
Conditions: plain residues with an end cap or a label only (N-terminal biotin on a linker: ttds)

Binder	pKd
B1	below the threshold
B2	below the threshold

Biological target: T6, APBA1_2, Q02410
Assay: holdup assay
Set-up: key: below the threshold = too weak to quantify, mostly under pKd 3.1 to 4
Conditions: plain residues with an end cap or a label only (N-terminal biotin on a linker: ttds)

Binder	pKd
B1	4.13
B2	4.23

Biological target: T7, FRMPD1, Q5SYB0
Assay: holdup assay
Set-up: key: below the threshold = too weak to quantify, mostly under pKd 3.1 to 4
Conditions: plain residues with an end cap or a label only (N-terminal biotin on a linker: ttds)

Binder	pKd
B1	below the threshold
B2	below the threshold

Biological target: T8, DFNB31_2, Q9P202
Assay: holdup assay
Set-up: key: below the threshold = too weak to quantify, mostly under pKd 3.1 to 4
Conditions: plain residues with an end cap or a label only (N-terminal biotin on a linker: ttds)

Binder	pKd
B1	below the threshold
B2	below the threshold

Biological target: T9, PDZRN3_1, Q9UPQ7
Assay: holdup assay
Set-up: key: below the threshold = too weak to quantify, mostly under pKd 3.1 to 4
Conditions: plain residues with an end cap or a label only (N-terminal biotin on a linker: ttds)

Binder	pKd
B1	5.15
B2	4.68

Biological target: NHERF4_1, Q86UT5-2
Sequence (Q86UT5 other isoform, or with tags, fused parts or gaps): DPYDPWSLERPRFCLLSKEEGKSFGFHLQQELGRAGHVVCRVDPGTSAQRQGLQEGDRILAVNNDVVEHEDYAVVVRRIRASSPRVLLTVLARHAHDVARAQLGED
Assay: holdup assay
Set-up: key: below the threshold = too weak to quantify, mostly under pKd 3.1 to 4
Conditions: plain residues with an end cap or a label only (N-terminal biotin on a linker: ttds)

Binder	pKd
B1	below the threshold
B2	below the threshold

Biological target: T10, TIAM2, Q8IVF5
Assay: holdup assay
Set-up: key: below the threshold = too weak to quantify, mostly under pKd 3.1 to 4
Conditions: plain residues with an end cap or a label only (N-terminal biotin on a linker: ttds)

Binder	pKd
B1	below the threshold
B2	below the threshold

Biological target: T11, MPDZ_10, O75970
Assay: holdup assay
Set-up: key: below the threshold = too weak to quantify, mostly under pKd 3.1 to 4
Conditions: plain residues with an end cap or a label only (N-terminal biotin on a linker: ttds)

Binder	pKd
B1	below the threshold
B2	below the threshold

Biological target: MAGI2_4, Q86UL8
Sequence (Q86UL8 772-865): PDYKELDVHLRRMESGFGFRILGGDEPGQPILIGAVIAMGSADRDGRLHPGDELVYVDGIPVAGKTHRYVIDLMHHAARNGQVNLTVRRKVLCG
Assay: holdup assay
Set-up: key: below the threshold = too weak to quantify, mostly under pKd 3.1 to 4
Conditions: plain residues with an end cap or a label only (N-terminal biotin on a linker: ttds)

Binder	pKd
B1	4.19
B2	4.07

Biological target: T12, HTRA3, P83110
Assay: holdup assay
Set-up: key: below the threshold = too weak to quantify, mostly under pKd 3.1 to 4
Conditions: plain residues with an end cap or a label only (N-terminal biotin on a linker: ttds)

Binder	pKd
B1	3.51
B2	below the threshold

Biological target: Inadl_2, Q8NI35
Sequence (Q8NI35 238-335): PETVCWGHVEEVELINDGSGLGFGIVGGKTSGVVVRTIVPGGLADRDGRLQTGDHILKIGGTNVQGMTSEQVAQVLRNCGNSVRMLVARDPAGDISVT
Assay: holdup assay
Set-up: key: below the threshold = too weak to quantify, mostly under pKd 3.1 to 4
Conditions: plain residues with an end cap or a label only (N-terminal biotin on a linker: ttds)

Binder	pKd
B1	below the threshold
B2	below the threshold
